Positions count from the first letter of the chain named. Values belong to the binder of their own block, whether it stands above or below them.
How the values were obtained:
[1] = molecular target: T1, Fc tagged human CD137 (human, UniProt Q07011 24-186); test: SPR
T1 construct: also called CD137-Fc chimeric protein
How it was run: (§1)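 Kinetics were fitted with a one-to-one Langmuir model to give apparent ka, kd and KD. Binders at 0.12-90 nM (three-fold series) flowed 3 min, with 10 min dissociation and 3 M MgCl₂ regeneration, on a Biacore T200.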

[2] = molecular target: T2, Fc tagged human PDL1 (human, UniProt Q9NZQ7 19-239); test: SPR
T2 construct: Bought (Sino Biological, cat. 10084-H02H); captured on the SPR chip; also called PDL1-Fc chimeric protein

[3] = molecular target: T3, CD137 on Jurkat NFkB reporter cells (human, UniProt Q07011 24-255); test: cell-based or functional assay
[4] = molecular target: T3, CD137 on Jurkat NFkB reporter cells; test: cell-based or functional assay; remark: listed apart in the source
[5] = molecular target: T3, CD137 on Jurkat NFkB reporter cells; test: cell-based or functional assay; remark: listed apart in the source
[6] = molecular target: human PDL1 extracellular domain (human, UniProt Q9NZQ7 19-238); test: SPR, IgG format captured
Protocol: (§2) Affinity to PDL1 of the different species was determined by SPR measurements using a Biacore T200 device (GE Healthcare). An antibody specific for the Fc region of human IgGs was immobilized on a sensor chip (CM5 sensor chip, GE Healthcare) by amine-coupling. For all formats, with the exception of the Fc containing Morrison formats, PDL1-Fc chimeric protein from different species were captured by the immobilized antibody.
(§3) The Fc containing formats were directly captured by the antibody specific for the Fc region of human IgGs. Two-fold serial dilutions of PDL1 extracellular domain or CD137 extracellular domain ranging from 90 to 0.35 nM were tested for binding to the IgG captured on the biosensor chip. After each injection cycle, surfaces were regenerated with one injection of a 3 M MgCl2 solution.

[7] = molecular target: T4, human CD137 extracellular domain (human, UniProt Q07011 24-186); test: SPR, IgG format captured
T4 construct: also called CD137 (PeproTech, cat. 310-15)
Protocol: as §2, §3

[8] = molecular target: human PDL1 on cells (human, UniProt Q9NZQ7 19-290); test: cell-based or functional assay
[9] = molecular target: T5, biotinylated human PDL1 (human, UniProt Q9NZQ7 19-238, limits assumed, biotinylated); test: competition ELISA B7.1/PDL1
T5 construct: also called biotinylated PDL1
How it was run: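 Test mixtures containing biotinylated human PDL1 were pre-incubated 1 h at room temperature, then incubated 1.5 h on the plate under agitation. Bound PDL1 detected with 10 ng/ml streptavidin-polyHRP40 and TMB, stopped at 6 min with HCl, read at 450 nm minus 690 nm. IC₅₀ from 4PL fit.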

[10] = molecular target: T5, biotinylated human PDL1; test: competition ELISA PD-1/PDL1
[11] = molecular target: T3, CD137 on Jurkat NFkB reporter cells; test: cell-based or functional assay; remark: listed apart in the source
[12] = molecular target: cynomolgus CD137-Fc chimeric protein (cynomolgus monkey, UniProt A9YYE7 24-186); test: SPR
How it was run: as §1

[13] = molecular target: T6, mouse CD137-Fc chimeric protein (mouse, UniProt P20334 24-187, limits assumed); test: SPR
T6 sequence (looked up): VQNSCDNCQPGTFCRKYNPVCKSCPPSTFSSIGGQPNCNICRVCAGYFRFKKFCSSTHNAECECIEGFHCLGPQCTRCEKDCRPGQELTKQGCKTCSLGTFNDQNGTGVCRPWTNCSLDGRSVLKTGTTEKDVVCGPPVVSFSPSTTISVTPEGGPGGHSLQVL
How it was run: as §1

[14] = molecular target: T3, CD137 on Jurkat NFkB reporter cells; test: cell-based or functional assay; remark: listed apart in the source
[15] = molecular target: T3, CD137 on Jurkat NFkB reporter cells; test: cell-based or functional assay; remark: listed apart in the source

B1: PRO1058 (other)
chain: DIQMTQSPSSLSASVGDRVTITCQASQSINDYLAWYQQKPGKAPKLLIYKASTLASGVPSRFSGSGSGTDFTLTISSLQPEDFATYYCQQGYIITDIDNVFGTGTKVTVLGGGGGSQVQLQESGPGLVKPSETLSLTCKVSGFSFNNDYDMCWIRQPPGKGLEWIGCIDTGDGSTYYASWAKGRVTISVDSSKNQFSLKLSSVTAADTAVYYCAREAASSSGYGMGYFDLWGQGTLVTVSSGGGGSGGGGSGGGGSGGGGSIQMTQSPSSLSASVGDRVTITCQSSQSVYDNNWLAWYQQKPGKAPKLLIYRASNLASGVPSRFSGSGSGTDFTLTISSLQPEDFATYYCQGTYLSSNWYWAFGTGTKVTVLGGGGGSQVQLQESGPGLVKPSETLSLTCKVSGFSFSSGYDMCWIRQPPGKGLEWIGCVVAGSVDITYYASWAKGRVTISVDSSKNQFSLKLSSVTAADTAVYYCARKDAYSDAFNLWGQGTLVTVSSGGGGSGGGGSVVMTQSPSSLSASVGDRVTITCQASQIISSRSAWYQQKPGQPPKLLIYQASKLASGVPSRFSGSGSGTDFTLTISSLQPEDFATYYCQCTYIDSNFGAFGGGTKLTVLGGGGGSGGGGSGGGGSGGGGSEVQLVESGGGLVQPGGSLRLSCAASGFSFSSSYWICWVRQAPGKGLEWVGCVFTGDGTTYYASWAKGRFTISRDNSKNTVYLQMNSLRAEDTATYFCARPVSVYYYGMDLWGQGTLVTVSS
notes: trispecific scDb-scFv; also called 38-27-C05 sc01 scDb-i/33-03-G02 sc01 scDb-o/23-13-A01-sc03, sk17sh4
koff [1]: 0.0021 s⁻¹
binding result [2]: binds
IC50 (ng/ml), NFkB reporter, CHO-PD-L1, 24 h, +HSA [3]: 121 ng/mL
max. activation (%), NFkB reporter, CHO-PD-L1, 24 h, +HSA [3]: 36.2%
rel. IC50 (urelumab/test), NFkB reporter, CHO-PD-L1, 24 h, +HSA [3]: 0.64 fold
EC50, NFkB reporter, CHO-PDL1, 24 h, +HSA [4]: 0.121 µg/mL
EC50, NFkB reporter, CHO-PDL1, 6 h, +HSA [5]: 0.0709 µg/mL

B2: PRO1059 (bispecific antibody, human IgG1, kappa, L234A L235A)
light: DIQMTQSPSSLSASVGDRVTITCQASQSINDYLAWYQQKPGKAPKLLIYKASTLASGVPSRFSGSGSGTDFTLTISSLQPEDFATYYCQQGYIITDIDNVFGTGTKVTVLGTVAAPSVFIFPPSDEQLKSGTASVVCLLNNFYPREAKVQWKVDNALQSGNSQESVTEQDSKDSTYSLSSTLTLSKADYEKHKVYACEVTHQGLSSPVTKSFNRGECGGGGSGGGGSIQMTQSPSSLSASVGDRVTITCQASQSINNVLAWYQQKPGKAPKLLIYRASTLASGVPSRFSGSGSGTDFTLTISSLQPEDFATYYCQSSYGNYGDFGTGTKVTVLGGGGGSGGGGSGGGGSGGGGSQVQLQESGPGLVKPSETLSLTCKVSGFSFSNSYWICWIRQPPGKGLEWIGCTFVGSSDSTYYANWAKGRVTISVDSSKNQFSLKLSSVTAADTAVYYCARHPSDAVYGYANNLWGQGTLVTVSS
heavy: QVQLQESGPGLVKPSETLSLTCKVSGFSFSSGYDMCWIRQPPGKGLEWIGCVVAGSVDITYYASWAKGRVTISVDSSKNQFSLKLSSVTAADTAVYYCARKDAYSDAFNLWGQGTLVTVSSASTKGPSVFPLAPSSKSTSGGTAALGCLVKDYFPEPVTVSWNSGALTSGVHTFPAVLQSSGLYSLSSVVTVPSSSLGTQTYICNVNHKPSNTKVDKRVEPKSCDKTHTCPPCPAPEAAGGPSVFLFPPKPKDTLMISRTPEVTCVVVDVSHEDPEVKFNWYVDGVEVHNAKTKPREEQYNSTYRVVSVLTVLHQDWLNGKEYKCKVSNKALGAPIEKTISKAKGQPREPQVYTLPPSREEMTKNQVSLTCLVKGFYPSDIAVEWESNGQPENNYKTTPPVLDSDGSFFLYSKLTVDKSRWQQGNVFSCSVMHEALHNHYTQKSLSLSPGK
notes: silent hIgG1 anti-PDL1 with anti-CD137 scFv on the light chain; also called 33-03-G02 IgG1 LC with 38-02-A04 sc01 scFv; Morrison-L
IC50 (ng/ml), NFkB reporter, CHO-PD-L1, 24 h [3]: 289 ng/mL
rel. IC50 (urelumab/test), NFkB reporter, CHO-PD-L1, 24 h [3]: 0.09 fold
koff [6]: 6.5e-05 s⁻¹
Kd [7]: 2.3 nM
koff [7]: 0.00042 s⁻¹
kon [7]: 180000 M⁻¹ s⁻¹
IC50 (ng/ml), NF-AT potency assay [8]: 93.8 ng/mL
rel. IC50 (avelumab/test) [8]: 0.52 fold
IC50 [9]: 0.029 µg/mL
rel. IC50 (IC50 avelumab/IC50 test) [9]: 0.3 fold
IC50 [10]: 0.00454 µg/mL
rel. IC50 (IC50 avelumab/IC50 test) [10]: 0.37 fold

Next, values leading:

EC50, NFkB reporter, HCC827 with IFNg [11]: 0.0119 µg/mL
Top of curve fit, NFkB reporter, HCC827 with IFNg [11]: 154
Kd [12]: 1.3 nM
koff [12]: 0.00033 s⁻¹
kon [12]: 260000 M⁻¹ s⁻¹
Kd [1]: 0.58 nM
koff [1]: 0.00027 s⁻¹
kon [1]: 310000 M⁻¹ s⁻¹
koff [2]: 0.00017 s⁻¹
kon [2]: 2.3e+06 M⁻¹ s⁻¹
Kd [13]: 410 nM
koff [13]: 0.027 s⁻¹
kon [13]: 65000 M⁻¹ s⁻¹
IC50 (ng/ml), NFkB reporter, CHO-PD-L1 [3]: 5.75 ng/mL
IC50 (ng/ml), NFkB reporter, HCC827 + IFNg [3]: 11.4 ng/mL
IC50 (ng/ml), NFkB reporter, HCC827 - IFNg [3]: 16.1 ng/mL
max. activation (%), NFkB reporter, CHO-PD-L1 [3]: 219%
max. activation (%), NFkB reporter, HCC827 + IFNg [3]: 154%
max. activation (%), NFkB reporter, HCC827 - IFNg [3]: 123%
rel. IC50 (urelumab/test), NFkB reporter, CHO-PD-L1 [3]: 18.1 fold
rel. IC50 (urelumab/test), NFkB reporter, HCC827 + IFNg [3]: 12.2 fold
rel. IC50 (urelumab/test), NFkB reporter, HCC827 - IFNg [3]: 6.82 fold
EC50, NFkB reporter, CHO-PDL1 [14]: 0.00575 µg/mL
Top of curve fit, NFkB reporter, CHO-PDL1 [14]: 219
EC50, NFkB reporter, HCC827 without IFNg [15]: 0.0161 µg/mL
Top of curve fit, NFkB reporter, HCC827 without IFNg [15]: 123
B3: PRO1123 (bispecific antibody)
chain: DIQMTQSPSSLSASVGDRVTITCQASQSINDYLAWYQQKPGKAPKLLIYKASTLASGVPSRFSGSGSGTDFTLTISSLQPEDFATYYCQQGYIITDIDNVFGTGTKVTVLGGGGGSQVQLQESGPGLVKPSETLSLTCKVSGFSFSNSYWICWVRQPPGKGLEWIGCTFVGSSDSTYYANWAKGRVTISVDSSKNQVSLKLSSVTAADTAVYFCARHPSDAVYGYANNLWGQGTLVTVSSGGGGSGGGGSGGGGSGGGGSIQMTQSPSSLSASVGDRVTITCQASQSINNVLAWYQQKPGKPPKLLIYRASTLASGVPSRFSGSGSGTDFTLTISSLQPEDFATYYCQSSYGNYGDFGTGTKVTVLGGGGGSQVQLQESGPGLVKPSETLSLTCKVSGFSFSSGYDMCWIRQPPGKGLEWIGCVVAGSVDITYYASWAKGRVTISVDSSKNQFSLKLSSVTAADTAVYYCARKDAYSDAFNLWGQGTLVTVSS
notes: scDb; also called 38-02-A04 sc05 IF scDb-i/33-03-G02 sc01 scDb-o

EC50, NFkB reporter, HCC827 with IFNg [11]: 0.00483 µg/mL
Top of curve fit, NFkB reporter, HCC827 with IFNg [11]: 188
koff [12]: 0.00033 s⁻¹
Kd [1]: ≤ 0.015 nM
fold improvement of affinity against PRO885 [1]: > 200 fold
koff [1]: < 1e-05 s⁻¹
kon [1]: 680000 M⁻¹ s⁻¹
koff [2]: 0.0002 s⁻¹
kon [2]: 3.1e+06 M⁻¹ s⁻¹
kon [13]: 200000 M⁻¹ s⁻¹
IC50 (ng/ml), NFkB reporter, CHO-PD-L1 [3]: 3.68 ng/mL
IC50 (ng/ml), NFkB reporter, HCC827 + IFNg [3]: 4.83 ng/mL
IC50 (ng/ml), NFkB reporter, HCC827 - IFNg [3]: 5.62 ng/mL
max. activation (%), NFkB reporter, CHO-PD-L1 [3]: 229%
max. activation (%), NFkB reporter, HCC827 + IFNg [3]: 188%
max. activation (%), NFkB reporter, HCC827 - IFNg [3]: 113%
rel. IC50 (urelumab/test), NFkB reporter, CHO-PD-L1 [3]: 23.5 fold
rel. IC50 (urelumab/test), NFkB reporter, HCC827 + IFNg [3]: 22.4 fold
rel. IC50 (urelumab/test), NFkB reporter, HCC827 - IFNg [3]: 19.9 fold
EC50, NFkB reporter, CHO-PDL1 [14]: 0.00368 µg/mL
Top of curve fit, NFkB reporter, CHO-PDL1 [14]: 229
EC50, NFkB reporter, HCC827 without IFNg [15]: 0.00562 µg/mL
Top of curve fit, NFkB reporter, HCC827 without IFNg [15]: 113
B4: PRO1124 (bispecific antibody)
chain: B3 chain with V140A, V190K, I261L
notes: scDb; also called 38-02-A04 sc06 Full scDb-i/33-03-G02 sc01 scDb-o
